According to the Immune Epitope Database (IEDB):

Experiments:
HLA-A*03:01 = test: IEDB peptide-MHC binding, purified MHC/direct/fluorescence; filed as Kd, often an IC50 or EC50 that approximates it; ≥ and ≤ were set here for values at or beyond the usual limits of such assays
HLA-A*02:11 = test: as above; conditions: source organism: Zaire ebolavirus
HLA-A*02:01 = test: as above
HLA-A*68:02 = test: as above; conditions: source organism: Zaire ebolavirus
HLA-A*29:02 = test: as above; conditions: source organism: Zaire ebolavirus
HLA-B*51:01 [1] = test: IEDB peptide-MHC binding, purified MHC/competitive/fluorescence; filed as Kd, often an IC50 or EC50 that approximates it; ≥ and ≤ were set here for values at or beyond the usual limits of such assays; conditions: source organism: Zaire ebolavirus
HLA-A*25:01 = test: as above; conditions: source organism: Zaire ebolavirus
HLA-A*80:01 = test: as above; conditions: source organism: Zaire ebolavirus
HLA-B*18:01 [2] = test: as above; conditions: source organism: Zaire ebolavirus
HLA-A*26:01 [3] = test: as above; conditions: source organism: Zaire ebolavirus
HLA-B*46:01 [4] = test: as above; conditions: source organism: Zaire ebolavirus
HLA-B*27:03 = test: as above; conditions: source organism: Zaire ebolavirus
HLA-A*69:01 [5] = test: as above; conditions: source organism: Zaire ebolavirus
HLA-B*57:01 [6] = test: as above; conditions: source organism: Zaire ebolavirus
HLA-B*39:01 = test: as above
HLA-B*15:01 [7] = test: as above; conditions: source organism: Zaire ebolavirus
HLA-B*58:01 = test: IEDB peptide-MHC binding, purified MHC/direct/fluorescence; filed as Kd, often an IC50 or EC50 that approximates it; ≥ and ≤ were set here for values at or beyond the usual limits of such assays; conditions: source organism: Camelpox virus CMS
HLA-B*27:05 = test: as above; conditions: source organism: Camelpox virus CMS
HLA-B*08:02 = test: as above; conditions: source organism: Variola virus
HLA-B*51:01 [8] = test: as above; conditions: source organism: Camelpox virus CMS
HLA-B*08:01 = test: as above; conditions: source organism: Variola virus
HLA-A*31:01 = test: as above; conditions: source organism: Camelpox virus CMS
HLA-B*18:01 [9] = test: as above; conditions: source organism: Camelpox virus CMS
HLA-A*26:01 [10] = test: as above; conditions: source organism: Variola virus
HLA-B*46:01 [11] = test: as above; conditions: source organism: Camelpox virus CMS
HLA-A*01:01 = test: as above; conditions: source organism: Camelpox virus CMS
HLA-A*69:01 [12] = test: as above; conditions: source organism: Camelpox virus CMS
HLA-C*05:01 = test: as above; conditions: source organism: Vaccinia virus WR
HLA-A*11:01 = test: as above; conditions: source organism: Camelpox virus CMS
HLA-B*57:01 [13] = test: as above; conditions: source organism: Camelpox virus CMS
HLA-B*07:02 = test: as above; conditions: source organism: Camelpox virus CMS
HLA-B*48:01 = test: as above; conditions: source organism: Camelpox virus CMS
HLA-B*15:17 = test: as above; conditions: source organism: Camelpox virus CMS
HLA-B*40:01 = test: as above; conditions: source organism: Camelpox virus CMS
HLA-B*15:01 [14] = test: as above; conditions: source organism: Camelpox virus CMS
HLA-A*32:15 = test: IEDB peptide-MHC binding, purified MHC/competitive/fluorescence; filed as Kd, often an IC50 or EC50 that approximates it; ≥ and ≤ were set here for values at or beyond the usual limits of such assays; conditions: source organism: Vaccinia virus WR
HLA-B*15:09 = test: as above; conditions: source organism: Vaccinia virus WR
HLA-B*15:42 = test: as above; conditions: source organism: Vaccinia virus WR
HLA-B*45:06 = test: as above; conditions: source organism: Vaccinia virus WR
HLA-A*68:23 = test: as above; conditions: source organism: Vaccinia virus WR
HLA-B*14:02 = test: IEDB peptide-MHC binding, purified MHC/competitive/fluorescence; ≥ and ≤ were set here for values at or beyond the usual limits of such assays; conditions: source organism: Horsepox virus
[15] = source organism: Zaire ebolavirus
[16] = source organism: Camelpox virus CMS

For SLTDRELLL, the Kd (HLA-A*03:01; [15]) was ≥ 20 µM, the Kd (HLA-A*02:11) was ≥ 20 µM and the Kd (HLA-A*02:01; source organism: Sudan ebolavirus - Uganda (2000)) was 0.0013 µM. The Kd (HLA-A*68:02) was ≥ 20 µM, the Kd (HLA-A*29:02) was ≥ 20 µM and the Kd (HLA-B*51:01 [1]) was ≥ 20 µM. For the same sequence, the Kd (HLA-A*25:01) was ≥ 20 µM, the Kd (HLA-A*80:01) was ≥ 20 µM and the Kd (HLA-B*18:01 [2]) was ≥ 20 µM. The Kd (HLA-A*26:01 [3]) was ≥ 20 µM, the Kd (HLA-B*46:01 [4]) was ≥ 20 µM and the Kd (HLA-B*27:03) was ≥ 20 µM. For the same sequence, the Kd (HLA-A*69:01 [5]) was ≥ 20 µM, the Kd (HLA-B*57:01 [6]) was ≥ 20 µM and the Kd (HLA-B*39:01; [15]) was ≥ 20 µM. The Kd (HLA-B*15:01 [7]) was ≥ 20 µM.

For MPAYIRNTL, the Kd (HLA-B*58:01) was ≥ 20 µM, the Kd (HLA-A*03:01; [16]) was ≥ 20 µM and the Kd (HLA-B*27:05) was ≥ 20 µM. It also gave a Kd (HLA-B*08:02) of 1.37 µM, a Kd (HLA-B*51:01 [8]) of 0.676 µM and a Kd (HLA-B*08:01) of 0.008 µM. The Kd (HLA-A*31:01) was ≥ 20 µM, the Kd (HLA-B*18:01 [9]) was 2.82 µM and the Kd (HLA-A*26:01 [10]) was 6.95 µM. The Kd (HLA-B*46:01 [11]) was ≥ 20 µM, the Kd (HLA-A*01:01) was ≥ 20 µM and the Kd (HLA-A*69:01 [12]) was ≤ 0.001 µM. The Kd (HLA-A*02:01; [16]) was ≥ 20 µM, the Kd (HLA-C*05:01) was ≥ 20 µM and the Kd (HLA-A*11:01) was ≥ 20 µM. The Kd (HLA-B*57:01 [13]) was ≥ 20 µM, the Kd (HLA-B*07:02) was 0.0066 µM and the Kd (HLA-B*48:01) was 1.52 µM. The Kd (HLA-B*15:17) was ≥ 20 µM, the Kd (HLA-B*40:01) was ≥ 20 µM and the Kd (HLA-B*15:01 [14]) was ≥ 20 µM. For the same sequence, the Kd (HLA-A*32:15) was 0.0636 µM, the Kd (HLA-B*15:09) was ≥ 20 µM and the Kd (HLA-B*15:42) was ≥ 5 µM. The Kd (HLA-B*39:01; source organism: Vaccinia virus WR) was 0.0364 µM, the Kd (HLA-B*45:06) was ≥ 5 µM and the Kd (HLA-A*68:23) was 0.0009 µM. The IC50 (HLA-B*14:02) was 0.453 µM.
